Test: yeast display, Sf9 membrane polyspecificity reagent, FACS + sequencing; frameworks hold sequencing errors
Summary of the method: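 Nanobodies from a synthetic yeast display library (Saccharomyces cerevisiae BJ5465), induced 36–48 hours with galactose, were stained 1 hour at 4 °C with 10% biotinylated, detergent-solubilized Sf9 membrane reagent, enriched on streptavidin microbeads, then FACS-sorted. Anti-HA (expression) and streptavidin (reagent binding) fluorescence set low and high (top ~1%) gates. Polyreactivity labels come from the gate of origin. Genes were colony-PCR amplified, MiSeq 2 × 250 sequenced and filtered by CDR length.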

Row | Sequence | polyreactivity (PSR sort gate)
1 | QVQLVESGGGLVQAGGSLRLSCAASGSTFYPNSMGWYRQAPGKERELVDAISWSGGYTYYADSVKGRFTISRDNAKNTVFLQMNSLNPEDTAVYYCAAREFLYSWYTHLKYDYWGQGTQVTVSS | low polyreactivity
2 | QVKLEESGGGLVQAGGSLRLSCAASGFIFGSYAMGWYRQAPGKERELVAVISSSGGRTYYADSVKGRFTISRDNAKNTVYLQMNSLKPEDTAVYYCAAPWIARKYSPSEYDWGQGTQVTVSS | high polyreactivity
3 | QVQLVESGGGLVQAGGSLRLSCAASGYIFARYAMGWYRQAPGTERELVARITTGDSTYYADSVKGRFTISRDNAKNTVYLQMNSLKPEDTAVYYCAADDNVSVVGLYYWGQGTQVTVSS | low polyreactivity
4 | QVQLVDSGGGLVKAGGSLRLSCAASGSTFDTNVMGWYRPAPGKERELVAAIDVSGGSTYYADSVKGRFTISRDNAKNYVYLQMYSLKPEDTAVFYSAAEDGLYGMDYWGQGSQVTVSS | low polyreactivity
5 | QVQLVESGGGLVQAGGSLRLSCAASGRIFTNAMGWYTQAPGKQRELVAAISGGSNTYYADSVKGRFTISRDNANNTVYLQMNSLKPEDTAVYYCNTDDQWWDGGYDYWGQGTQVTVSS | low polyreactivity
6 | QVQLVESGGGLVQAGGSLRLSCAASGFTLSSYVMGWYRQAPGKERELVAAITSSGGSTYYADSVKGRFTISRDNAKNTVYLQMNSLKPEDTAVYYCNAVWWYKLYFDDDYWGQGTQVNVSS | high polyreactivity
7 | QVQLVESGGGLVQAGGSLRLSCAASGSTFHRYVMGWYRQAPGKERELVAVINSTGGSTYYADSVKGRFTISRDNAKNTVYLQMNSLKPEDTAVYYCARVTRRGPGYTTLYSRYDYWGQGTQVTVSS | low polyreactivity
8 | QVQLLESGGGLVQAGGSLRLSCAASGRTFDWNMGWYRQAPGKERELVAGITFSVDSTYYADSVKGRFTISRDNAKNTVYLQMNSLKPEDTAYWGQGTQVSVSS | low polyreactivity
9 | QVQLVESGGGLVQAGCSLRLSCAASGSNFGMYTMGWYRQAPGKESELVAAISGGGGSTYYADSVKGRFTISRDTAKNTVYVQMNSLKPEDSAVYYCAAVLDLSEWYDYWGQGTQVTVSS | low polyreactivity
10 | QVQLVESGGGLVQAGGSLRLSCAASGFIFAFYAMGRYRQAPGKERELVASISRRSGSTYYADSVKGRFTISRDNAKNTVYLQMNSLKPEDTALYYCAADRPPCETYGYDYWGQGTQVTVSS | low polyreactivity
11 | QVQLVESGGGLVQAGGSLRLSCAASGSTFYYHGRGWSRQAPGKERELVAVISISGGSTYYADSVKGSFTISRDNAKNTVDLQMNSLKPEDTAVYYCATSYVGRSAYRSYGARGGYWGQGTQVTVSS | low polyreactivity
12 | QVQLVESGGGLVQAGGSLRLSCAASGGIFSGYAMGWYRQAPGKERELVAAISRRGGSTYYADSVKGRFTISRDNAKNTVYLQMNSLKPEDTAVYYFAKAYPYTCGQVTMYYWGQGTQVTVSS | high polyreactivity
13 | QFQLVESGGGLVQAGGSLRLSCAASGSTFKYYAKGWYRQAPGKERELVAAISARTGSTYYADSVKGRFTISRDNEKNTVYLQMNILKPEDTAVYYCNKLTWRGEVDYWGQGTQVTESS | high polyreactivity
14 | QLQLVESGGGLVQAGGRLRLSCAASGFIFWSYAMGWYRQAPGKERELVAAISARGGSTYYADSVKGRFTISRDNSKNTVYLQMNSLKPEDTAVYYCAAPRASGYYWGKGTQVTVSS | high polyreactivity
15 | QVQLVESGGCLVQAGGSLRLICAASGRIIDRNAMGWYRHAPGKERELVAAISSSGSTYYADSVKGRFTISRDNAKITVYLQMNSLKPEDTAVYYCNKRARHSGDFVWGHGYWGQGTQVNVSS | low polyreactivity
16 | QVQLVESGGGLVQAGGSLRLCCAASGLTFHRYAMGSYRQAPGKERELDAAINYSGGRTYYADSVKGRFTISRDNAKNTVYLQMNSLKPEDTAVYYCAAPRASGYYWGQGTQVTVSS | high polyreactivity
17 | QVQLVESGGGLVQAGGSLRLSCAASGSIFFYYTMGWYRQAPGKERELVAAISDSGGSTYYADSVKGRFTISRDNAKNTVYLQMNSLKPEDTAVYYCAAADWFTVLESERVDYWGQGTQVTVSS | low polyreactivity
18 | QVQLVESGGGLVQAGGSLRLSCAASGSILSWYAMGWYRQAPGKERELVAAITGAGSTNYADSVKGRFTISRDNAKNTVYLQMNSLKPEDTAVYYCAADGSPWSWYSDGYWGQGTQVTVSS | low polyreactivity
19 | QVQLVESGGCLIKEVGSLRLSCAASGNIFVFYGKGWYRQAPGKERELVAAIDSGGSSTYYADSVKGRFTISRDNAKNTVYLKMKSLKPEDTAFDYCSARPYYSWNYDYWGQGTQVTVSS | low polyreactivity
20 | QVQHVESGGGLVQAGGSLRLSCAASGSIFIPYAMGWSRQPPGKERELVAAISWSGSSTYYADSVKGRFTISRDNAKNTVYLQMISLKPEDTAVYYCAAYNAYRRGYDYWGQGTQVTVSS | high polyreactivity
21 | QVQLVESGGGLVQAGGRLRLSSAASGFTFNKYGMGWYRQAPRKERELVAAISGSGGSTRYADSVKGRFTISRDNAKNTVYLLMNSLKPEDTAVYFCAKRSQTRYYYWGQGTQVTVSS | high polyreactivity
22 | QLQLVESGGGLVQAGGSLRLSCAASGRTFRYNAMGWYRQAPGKERELVASISWRGGSTYYADSVKGRFTISRDNAKNTVYLQMNSLKPEDTAVYYCVADAAHSEYDYWGQGTQVTVSS | high polyreactivity

Row | Sequence | polyreactivity (PSR sort gate)
23 | QVHLVESGGGLVQAGGSLRLSCAASGRTFGLYDMGWYRQAPGKERELVAGITRRGGRTYYADSVKGRFTISRDNAKNTVYLQMNSLKPEDTAVYYCAAGTIYLRHAQSPFDYWGQGTQVTVSS | high polyreactivity
24 | QVQLVESGGGLVQAGGSLRLSCAASGSIFRIYRMGWYRQAPGKERELVAAISYSGGNTYYADSVKGRFTISRDNAKNTVYLQMNSLKPEDTAVYYCAAVPYRKHSYPFRLNYWGQGTQVTVSS | high polyreactivity
25 | QVQLVESGGGLVQAGGSLRLSCAASGSIFGPYAMGWYRQAPGKERYADSVKGRFTISRDNAKNTVYLQMNSLKPEDTAVYYCNADTSRWRYSQPIYDYWGQGTQVTVSS | low polyreactivity
26 | QVQLVESGGGLVQAGGSLRLTCAASGFTLDVNAMGWYRQAPGKERELVATISWGGASTYYADSVKGRFTISRDNAKNTVYLQMNSLKPEDTAVYYCAAQYYYPDDKGGYDYWGQGTQVTVSS | low polyreactivity
27 | QVQLVESGGGLVQAGGSLRLSCAASGSIYAYYAMGWYRQAPGKERELVATISGGGVGTYYADSVKGRFTISRDNAKNSVYLQMNSLKPEDTAVYYCAADGAQAVIYGDRIEMDYWGQGTQVTVSS | low polyreactivity
28 | QVQLVESGGGLVQAGGSLRLSCAASGIIFVKYVMGWYRQAPGKERELVAAITGTGRTNYADSVKGRFTISRDNAKNTVYLQMNSLKPEDTAVYYCNARQAGTRYKYGYYGRYYWGQGTQVSVSS | high polyreactivity
29 | QVQLVESGGGLVQAGGSLRLSCAASGSTFFNYAMGWYRQAPGKERELVAAISSSGGRTYYADSVKGRFTISRDNAKNTVYLQMNSLKPEDTAVYYCAASGRKNGMNYWGQGTQVTVSS | high polyreactivity
30 | QVQLVESGGGLVQAGGSLRLSCAASGSIFYSYAMGWYRQAPGTERELVAAISWDASTYYADSVKGRFTISRDNAKNTVYLQMNSLKPEDTAVYYCNADIPYYFVYDAYDYWGQGTQVTVSS | low polyreactivity
31 | QVQLVDSGGGLVQAGGSLRLSCAASGRTFRYYAMGWYRQAPGKERELVATITGSGGSTYYADSVKGRFTISRDNAKNTVYLQLISLKPEDTAVYYCNARKVRYPYRWYDYWGQGTQVTVSS | high polyreactivity
32 | QVQLVESGGGLVQAGGSLRLSCAASGLTFYSYARGWYRQAPGKERELVATISGGGSTTYADSVKGRFTISRDNAKNTVYLQMNSLKPEDTAVYYCAAGYFLPVVWSTTNYIYDYWGQGTQVTVSS | high polyreactivity
33 | QVQLVQSGGGLVQAAGSLRLICAASGRTFPANAMGWYRQAPGKERELVAGITKSGGNTYYADSVKGRFTISRDNAKNTVYLQMNSLKPEDTAVYYCATRYYPLVNYLGYDYWGQGTQVTVSS | low polyreactivity
34 | QVQLVESGGGLVQAGGSLRISCAASGITLINDAMGWYRQAPGKERELVAAITYRGVSTYYADSVKGRFTISRDNAKNTVYLQMKSLKPEDTAVYYCAAGYYWQYTSSSAQYSYDYWGQGTQVTVSS | low polyreactivity
35 | QVQLVESGGGLVQAGGSLRLSCAASGSIFEGYVMGWYRQAPGKERELVATISFSGGSTYYADSVKGRFTISRDNAKNTVYLQMNSLKPEDTAVYYSAAAGVYYGVRGTTYAYDYWGQGTQVTVSS | low polyreactivity
36 | QVHLVESGGGLVQAGGSLRLSCAASGSTFYANAMGWYRQAPGKDRELVAVIRWSGGSTYYADSVKGRFTISRDNAKNTDYFQINSLKPEDTAVYYCNADFYRVAYLRRYSHFDYWGQGTQVTVSS | high polyreactivity
37 | QVQLVESGGGLVQAGGSLRLSCAASGRIVGRYAMAWYRQAPGKERELVAAISSGTSTNYADSVKGRFTISRDNAKNTVYLQMNSLKPEDTAVYYCAVVLYRHWWYDYWGKGTQVTVSS | high polyreactivity
38 | QVQLVETGRGLVQAGGSLRLSCAASGRIFRGYAMGWYRQAPGKERELVAAINWSGGNTYYADSVKGRFTISRDNAKNTVYLQMNSLKPEDTAVYYCATLGYLGGGYWGQGTQVTVSS | high polyreactivity
39 | QVQLVESGGGLVQAGGRLRLSCAASGSTFGWYARGWYRQAPGKERELVATISSGGSTYYADSVKGRFTISRDNAKNTVSLQMNSLKPEDTAVYYCAARIGTGVLPGRGANSHMDFWGHGTQVTVSS | low polyreactivity
40 | QVQLVESGGGLVQGGGSLRLSCAASGRNWSRYAMGWYRQAPGKERELVADITYSGGNTYYADSVKGRFTISRDNAKNTVYLQMNSLKPEDTAVYYCSTGWSWWTFDYWGQGTQVTVSS | high polyreactivity
41 | QVQLVESGGGLVQAGGSLRLSCAASGSTFVRNVMGWYRQAPGKERELVARISWSGTGTYYADSVKGRFTISRDNAKNTVYLQMNSLKPEDTAVYYCAARSTVYISSDYWGQGTQVTVSS | low polyreactivity
42 | QVQLVESGGGLVQAGGSLRLSCAASGRTFSKYTMGRYRQAHGKEMEFGAAISYSGGSTYYADSVKGRFTISRDYAKKTVYLQMNSLKPEDTAVYYCAARASTYKYYYWGQGTQVTVSS | high polyreactivity
43 | QVQLVESGGGLVQAGGSLRLSCAASGFIFAAYAMGWYRQAPGKERELVAAINRSGSSTYYADSVKGRFTISRDNAKNTVYLQMNSLKPEDTAVYYCAARVVHQSRYSYEYWGQGTQVTVSS | high polyreactivity

From the nanobody polyreactivity screen of Harvey et al. (2022)
